Source: the supplement of paper PMC9112550, “Optimization of the antimicrobial peptide Bac7 by deep mutational scanning” (BMC Biology, 2022)

system: Escherichia coli TOP10; experiment: shrunken log2 fold change of peptide-encoding DNA abundance (4.5 h post-induction vs induction); higher = less antimicrobial activity (less host growth inhibition); conditions: time post-induction: 4.5 h; library: site-saturation at positions 5, 18, 19, 20
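Further: peptides expressed intracellularly from a pBAD plasmid library in pooled LB shake-flask culture, induced with 0.3% L-arabinose, DNA abundance read by NGS, three biological replicates, DESeq2 with apeglm shrinkage.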

Sequence	shrunken log2 fold change
RRIRDRPPRLPRPRPRPYINPRP	-0.108
RRIRIRPPRLPRPRPRPKNDPRP	-0.867
RRIRHRPPRLPRPRPRPSHFPRP	-0.0233
RRIRERPPRLPRPRPRPEVIPRP	-0.00884
RRIRMRPPRLPRPRPRPCHPPRP	0.00663
RRIRYRPPRLPRPRPRPAKPPRP	-0.0319
RRIRCRPPRLPRPRPRPPSYPRP	-0.457
RRIRHRPPRLPRPRPRPGRPPRP	0.616
RRIRNRPPRLPRPRPRPLYIPRP	-0.826
RRIRSRPPRLPRPRPRPKCQPRP	0.607
RRIRFRPPRLPRPRPRPPRMPRP	0.332
RRIRGRPPRLPRPRPRPPHYPRP	0.523
RRIRGRPPRLPRPRPRPKWRPRP	0.795
RRIRERPPRLPRPRPRPMVTPRP	-0.0939
RRIRIRPPRLPRPRPRPWSAPRP	-0.649
RRIRERPPRLPRPRPRPWNHPRP	-1.48
RRIRTRPPRLPRPRPRPVMHPRP	0.102
RRIRMRPPRLPRPRPRPIVSPRP	-0.0362
RRIRGRPPRLPRPRPRPHPIPRP	-0.0927
RRIRCRPPRLPRPRPRPHFNPRP	-0.589
RRIRNRPPRLPRPRPRPGRGPRP	0.918
RRIRCRPPRLPRPRPRPEYWPRP	-0.0559
RRIRCRPPRLPRPRPRPLTQPRP	0.189
RRIRKRPPRLPRPRPRPDSIPRP	-0.0839
RRIRNRPPRLPRPRPRPRCVPRP	-0.0119

Sequence	shrunken log2 fold change
RRIRWRPPRLPRPRPRPHFYPRP	-0.117
RRIRVRPPRLPRPRPRPATLPRP	-0.00452
RRIRTRPPRLPRPRPRPRMMPRP	1.32
RRIRDRPPRLPRPRPRPVIHPRP	0.0491
RRIRKRPPRLPRPRPRPQFNPRP	-0.281
RRIRRRPPRLPRPRPRPDKEPRP	0.0257
RRIRSRPPRLPRPRPRPHMHPRP	-0.202
RRIRMRPPRLPRPRPRPMTGPRP	0.0472
RRIRWRPPRLPRPRPRPMWTPRP	0.171
RRIRTRPPRLPRPRPRPMTYPRP	-0.0748
RRIRCRPPRLPRPRPRPTLIPRP	1.65
RRIRYRPPRLPRPRPRPHPEPRP	0.037
RRIRQRPPRLPRPRPRPRTFPRP	-0.471
RRIRDRPPRLPRPRPRPVIWPRP	0.0861
RRIRRRPPRLPRPRPRPKNTPRP	-0.0507
RRIRSRPPRLPRPRPRPYKEPRP	-0.0146
RRIRWRPPRLPRPRPRPFLKPRP	-0.4
RRIRKRPPRLPRPRPRPQLEPRP	0.327
RRIRIRPPRLPRPRPRPYKKPRP	-0.0756
RRIRDRPPRLPRPRPRPHFEPRP	0.163
RRIRNRPPRLPRPRPRPYPNPRP	-0.3
RRIRWRPPRLPRPRPRPRGHPRP	0.404
RRIRDRPPRLPRPRPRPRKEPRP	-0.00977
RRIRYRPPRLPRPRPRPVWIPRP	-1.23
RRIRIRPPRLPRPRPRPDTAPRP	-0.232

Sequence	shrunken log2 fold change
RRIRKRPPRLPRPRPRPWGCPRP	0.131
RRIRCRPPRLPRPRPRPNDHPRP	-0.716
RRIRVRPPRLPRPRPRPAGCPRP	0.459
RRIRHRPPRLPRPRPRPTMQPRP	-0.0838
RRIRQRPPRLPRPRPRPDPMPRP	-0.0539
RRIRRRPPRLPRPRPRPDQTPRP	0.0174
RRIRARPPRLPRPRPRPCPSPRP	0.0639
RRIRGRPPRLPRPRPRPWMTPRP	0.034
RRIRSRPPRLPRPRPRPPSEPRP	0.0467
RRIRGRPPRLPRPRPRPYQHPRP	-0.376
RRIRTRPPRLPRPRPRPQKDPRP	-0.455
RRIRDRPPRLPRPRPRPDHPPRP	-0.76
RRIRFRPPRLPRPRPRPYCTPRP	-0.873
RRIRFRPPRLPRPRPRPHERPRP	0.0652
RRIRERPPRLPRPRPRPTKRPRP	-0.176
RRIRFRPPRLPRPRPRPLTFPRP	-0.391
RRIRLRPPRLPRPRPRPVLYPRP	-0.239
RRIRHRPPRLPRPRPRPVCCPRP	-0.0885
RRIRWRPPRLPRPRPRPWNWPRP	0.173
RRIRFRPPRLPRPRPRPYNNPRP	-1.15
RRIRTRPPRLPRPRPRPGEPPRP	-0.026
RRIRHRPPRLPRPRPRPYALPRP	-0.078
RRIRVRPPRLPRPRPRPDWLPRP	-0.0563
RRIRRRPPRLPRPRPRPEFTPRP	0.0132
RRIRCRPPRLPRPRPRPASPPRP	0.117

Sequence	shrunken log2 fold change
RRIRIRPPRLPRPRPRPDNRPRP	-0.00277
RRIRSRPPRLPRPRPRPTKSPRP	0.0789
RRIRLRPPRLPRPRPRPLIQPRP	-0.247
RRIRHRPPRLPRPRPRPAQHPRP	-0.14
RRIRSRPPRLPRPRPRPTRMPRP	1.03
RRIRMRPPRLPRPRPRPFVSPRP	-0.0194
RRIRRRPPRLPRPRPRPMKYPRP	0.00758
RRIRWRPPRLPRPRPRPFNSPRP	-0.207
RRIRKRPPRLPRPRPRPGFPPRP	0.419
RRIRKRPPRLPRPRPRPYYTPRP	-0.34
RRIRHRPPRLPRPRPRPRECPRP	0.0559
RRIRGRPPRLPRPRPRPTFQPRP	0.59
RRIRYRPPRLPRPRPRPTCKPRP	-0.178
RRIRRRPPRLPRPRPRPKTHPRP	0.126
RRIRERPPRLPRPRPRPMHEPRP	-0.401
RRIRDRPPRLPRPRPRPLVCPRP	0.22
RRIRNRPPRLPRPRPRPEVTPRP	-0.0105
RRIRTRPPRLPRPRPRPDFAPRP	0.176
RRIRIRPPRLPRPRPRPIQSPRP	-0.0915
RRIRMRPPRLPRPRPRPYNMPRP	-0.348
RRIRKRPPRLPRPRPRPSQKPRP	0.0284
RRIRGRPPRLPRPRPRPIIEPRP	0.863
RRIRNRPPRLPRPRPRPLRFPRP	0.426
RRIRVRPPRLPRPRPRPSTPPRP	-0.0614
RRIRDRPPRLPRPRPRPYTHPRP	-0.267

Sequence	shrunken log2 fold change
RRIRCRPPRLPRPRPRPEHEPRP	0.188
RRIRWRPPRLPRPRPRPEPIPRP	0.204
RRIRTRPPRLPRPRPRPCTVPRP	-0.442
RRIRNRPPRLPRPRPRPLQHPRP	0.198
RRIRRRPPRLPRPRPRPFFEPRP	0.18
RRIRLRPPRLPRPRPRPVKKPRP	0.031
RRIRVRPPRLPRPRPRPRICPRP	-0.229
RRIRSRPPRLPRPRPRPDLWPRP	0.349
RRIRTRPPRLPRPRPRPMLGPRP	-0.0672
RRIRARPPRLPRPRPRPPFIPRP	-0.103
RRIRVRPPRLPRPRPRPDWKPRP	-0.0682
RRIRPRPPRLPRPRPRPVCSPRP	-0.168
RRIRNRPPRLPRPRPRPHDGPRP	-0.378
RRIRLRPPRLPRPRPRPKCGPRP	0.338
RRIRQRPPRLPRPRPRPVWPPRP	0.303
RRIRYRPPRLPRPRPRPSSYPRP	-0.955
RRIRDRPPRLPRPRPRPPPCPRP	0.443
RRIRPRPPRLPRPRPRPPRKPRP	0.79
RRIRSRPPRLPRPRPRPLFDPRP	-0.335
RRIRRRPPRLPRPRPRPGIRPRP	0.108
RRIRIRPPRLPRPRPRPIHKPRP	-0.782
RRIRKRPPRLPRPRPRPMQSPRP	0.995
RRIRLRPPRLPRPRPRPQVFPRP	0.502
RRIRYRPPRLPRPRPRPYKSPRP	0.0233
RRIRQRPPRLPRPRPRPCMEPRP	-0.1
